Experimental data taken from patent publication US11787839B2, “Targeting α2δ-1-bound glutamate receptors for treating diseases and disorders” (Board of Regents, The University of Texas System, priority 2017, dated 2023).

Tests used:
MCAO mice = experiment: MCAO ischemic stroke model: neurological deficit and infarct volume; type: in vivo, mouse; settings: 90 min MCAO, 24 h reperfusion; gabapentin 100 mg/kg i.p. pre- or posttreatment; peptide 200 μg/kg i.p. twice
Protocol: Gabapentin was administered intraperitoneally (i.p.) either before or after initiating MCAO in separate groups of mice (pretreatment and posttreatment groups). […] Saline at the same volume as the gabapentin was administered i.p. in a vehicle group that also received MCAO.
It was then determined whether the α2δ-1-NMDAR interaction is involved in brain injury and neurological deficits caused by MCAO. In this protocol, MCAO-subjected mice with two injections of α2δ-1Tat peptide or control peptide (both 200 μg/kg, i.p.): one at 15 min before MCAO and another immediately before reperfusion. […] Furthermore, the brain infarct volume was much less in mice treated with α2δ-1Tat peptide than in mice treated with the control peptide (FIG. 22D).
Animal model. All procedures and protocols were approved by the Institutional Animal Care and Use Committee of The University of Texas MD Anderson Cancer Center. Adult male wild-type (WT) and conventional Cacna2d1 knockout (KO) mice (25-30 g, 8-10 weeks of age) were used in the study. MCAO was used in mice as an ischemic stroke model. The neurological deficits of mice subjected to MCAO were evaluated using a modified Longa test on a scale of 0-5. The brain coronal sections were stained using 1% 2,3,5-triphenyltetrazolium chloride (TTC), and the stained sections were captured as digital images and quantified for infarct volume.

[1] = molecular target: T1, GluN1 and α2δ-1 in hypothalamic synaptosomes (Rattus norvegicus, UniProt P35439+Q00959+Q00960); experiment: Protein level analysis in hypothalamic synaptosomes (Ang II); type: cell-based
T1 construct: from tissue; host or cells: rat hypothalamic slices containing the PVN (Sprague-Dawley, WKY, SHR) and synaptosomes made from them
T1 sequence (Q00959 20-1464 limits assumed, other chains not shown): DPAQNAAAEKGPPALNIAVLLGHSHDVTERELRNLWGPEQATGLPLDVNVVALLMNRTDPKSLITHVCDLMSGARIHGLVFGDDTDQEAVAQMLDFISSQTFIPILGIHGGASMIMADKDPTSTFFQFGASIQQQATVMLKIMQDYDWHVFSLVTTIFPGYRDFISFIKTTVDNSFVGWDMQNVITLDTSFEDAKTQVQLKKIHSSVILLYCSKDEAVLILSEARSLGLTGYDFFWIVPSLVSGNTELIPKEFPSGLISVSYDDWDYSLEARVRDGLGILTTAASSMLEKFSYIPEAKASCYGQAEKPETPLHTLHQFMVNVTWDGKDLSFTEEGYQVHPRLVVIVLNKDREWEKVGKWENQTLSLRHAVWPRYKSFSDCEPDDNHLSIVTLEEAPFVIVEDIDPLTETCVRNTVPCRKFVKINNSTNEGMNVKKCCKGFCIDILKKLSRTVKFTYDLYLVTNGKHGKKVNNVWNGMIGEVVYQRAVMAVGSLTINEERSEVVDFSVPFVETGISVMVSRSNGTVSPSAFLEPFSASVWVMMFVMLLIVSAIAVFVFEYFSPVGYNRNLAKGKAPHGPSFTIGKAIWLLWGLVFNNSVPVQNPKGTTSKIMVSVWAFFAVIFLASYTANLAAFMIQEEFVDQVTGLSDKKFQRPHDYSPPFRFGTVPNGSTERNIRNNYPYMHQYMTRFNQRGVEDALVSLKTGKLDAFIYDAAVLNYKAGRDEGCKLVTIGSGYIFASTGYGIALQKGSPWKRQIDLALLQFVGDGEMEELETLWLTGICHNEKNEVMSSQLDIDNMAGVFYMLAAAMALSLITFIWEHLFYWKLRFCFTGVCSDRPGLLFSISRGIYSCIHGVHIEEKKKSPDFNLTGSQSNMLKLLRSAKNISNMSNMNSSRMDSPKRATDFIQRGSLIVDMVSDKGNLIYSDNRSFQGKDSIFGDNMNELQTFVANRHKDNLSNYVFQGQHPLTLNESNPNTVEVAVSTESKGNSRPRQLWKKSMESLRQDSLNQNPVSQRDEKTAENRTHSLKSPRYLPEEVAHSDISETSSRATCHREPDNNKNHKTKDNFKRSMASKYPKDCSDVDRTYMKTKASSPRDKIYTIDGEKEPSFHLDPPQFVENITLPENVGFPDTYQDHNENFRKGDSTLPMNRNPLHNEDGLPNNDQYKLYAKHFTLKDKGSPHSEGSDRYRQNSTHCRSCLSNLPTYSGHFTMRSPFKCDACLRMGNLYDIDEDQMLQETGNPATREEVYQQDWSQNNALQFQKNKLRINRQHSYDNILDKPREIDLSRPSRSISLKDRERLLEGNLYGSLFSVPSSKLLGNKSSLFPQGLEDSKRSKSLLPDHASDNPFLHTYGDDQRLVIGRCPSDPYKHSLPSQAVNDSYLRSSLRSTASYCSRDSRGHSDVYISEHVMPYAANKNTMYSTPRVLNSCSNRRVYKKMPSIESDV
T1 sequence (Q00960 27-1482, other chains not shown): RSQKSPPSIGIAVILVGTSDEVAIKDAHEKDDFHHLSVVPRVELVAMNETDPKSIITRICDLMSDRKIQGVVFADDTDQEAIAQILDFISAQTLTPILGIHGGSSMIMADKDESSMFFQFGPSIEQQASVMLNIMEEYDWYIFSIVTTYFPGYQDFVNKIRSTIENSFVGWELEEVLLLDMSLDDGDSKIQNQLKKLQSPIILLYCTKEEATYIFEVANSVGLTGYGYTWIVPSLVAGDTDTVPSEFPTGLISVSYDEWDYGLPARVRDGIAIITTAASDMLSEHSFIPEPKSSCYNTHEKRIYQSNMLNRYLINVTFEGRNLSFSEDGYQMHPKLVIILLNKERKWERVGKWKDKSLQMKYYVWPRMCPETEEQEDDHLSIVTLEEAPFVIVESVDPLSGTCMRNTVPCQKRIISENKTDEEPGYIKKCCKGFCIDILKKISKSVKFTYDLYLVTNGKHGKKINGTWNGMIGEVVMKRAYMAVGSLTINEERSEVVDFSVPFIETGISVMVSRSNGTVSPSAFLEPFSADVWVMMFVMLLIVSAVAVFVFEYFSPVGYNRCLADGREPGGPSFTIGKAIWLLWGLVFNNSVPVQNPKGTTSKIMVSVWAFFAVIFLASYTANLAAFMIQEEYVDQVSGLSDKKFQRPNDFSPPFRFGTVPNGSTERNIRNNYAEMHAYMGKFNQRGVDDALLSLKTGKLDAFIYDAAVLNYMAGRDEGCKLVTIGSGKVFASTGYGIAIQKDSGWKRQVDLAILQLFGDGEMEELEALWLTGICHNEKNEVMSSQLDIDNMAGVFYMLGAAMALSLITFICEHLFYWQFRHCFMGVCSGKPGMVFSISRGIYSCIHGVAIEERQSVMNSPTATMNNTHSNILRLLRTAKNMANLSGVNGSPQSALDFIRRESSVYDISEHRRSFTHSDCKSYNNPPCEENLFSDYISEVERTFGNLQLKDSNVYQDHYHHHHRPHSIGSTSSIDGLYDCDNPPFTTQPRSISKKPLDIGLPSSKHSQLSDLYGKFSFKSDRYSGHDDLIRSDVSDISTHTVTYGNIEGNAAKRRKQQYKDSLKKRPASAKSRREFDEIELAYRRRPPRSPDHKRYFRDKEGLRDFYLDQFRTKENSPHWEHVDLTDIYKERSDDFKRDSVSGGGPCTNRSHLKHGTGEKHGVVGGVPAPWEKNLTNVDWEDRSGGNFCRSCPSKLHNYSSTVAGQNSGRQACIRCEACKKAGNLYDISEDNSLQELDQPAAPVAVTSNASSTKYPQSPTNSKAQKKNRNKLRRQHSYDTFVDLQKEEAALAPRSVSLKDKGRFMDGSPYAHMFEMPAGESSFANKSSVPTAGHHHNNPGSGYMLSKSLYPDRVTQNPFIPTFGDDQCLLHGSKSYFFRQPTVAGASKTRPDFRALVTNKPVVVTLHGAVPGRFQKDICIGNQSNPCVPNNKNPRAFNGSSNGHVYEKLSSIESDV
Protocol: Protein level analysis in hypothalamic synaptosomes: The hypothalamic tissues containing the PVN (pooled from 2 rats per sample) were homogenized using 10 volumes of ice-cold HEPES-buffered sucrose (0.32 mol/L sucrose, 1 mmol/L EGTA, and 4 mmol/L HEPES at pH 7.4) containing the protease inhibitor cocktail (Sigma-Aldrich). The homogenate was centrifuged at 2,000×g for 10 min at 4° C. to remove the nuclei and large debris. The supernatant was centrifuged at 20,000×g for 30 min to obtain the crude synaptosomal fraction. The synaptosomal pellet was lysed via hypo-osmotic shock in 9 volumes of ice-cold HEPES-buffer with the protease inhibitor cocktail for 30 min. The lysate was centrifuged at 25,000×g for 45 min at 4° C. to obtain the synaptosomal membrane fraction (Chen et al., 2018), which was then dissolved in sodium dodecyl sulfate sample buffer at a final concentration of 0.25 μg/μl for immunoblotting.
Western blotting was used to quantify GluN1 and α2δ-1 protein levels in the hypothalamic synaptosome. Fifteen micrograms of total proteins from each sample was loaded and separated by 4-15% Tris-HCl sodium dodecyl sulfate-polyacrylamide gel electrophoresis (#456-1086, Bio-Rad, Hercules, Calif.). The resolved proteins were transferred to a polyvinylidene difluoride membrane (Millipore). The membrane was treated with 5% nonfat dry milk in Tris-buffered saline (TBS) at 25° C. for 1 h and then incubated in TBS supplemented with 0.1% Triton X-100, 1% bovine serum albumin, and rabbit anti-GluN1 (#G8913, 1:100; Sigma, RRID: AB_259978), rabbit anti-α2δ-1 (#ACC-015, 1:500, Alomone, Jerusalem, Israel, RRID: AB_2039785), and mouse anti-PSD-95 (#75-348, 1:1,000, NeuroMab, Davis, Calif., RRID: AB_2315909) antibodies overnight at 4° C. The membrane was washed 3 times and then incubated with horseradish peroxidase-conjugated anti-rabbit IgG (1:5,000; Jackson ImmunoResearch, West Grove, Pa.) for 1 h at room temperature. The protein bands were detected with an enhanced chemiluminescence kit (Thermo Fisher Scientific, Waltham, Mass.), and protein band intensity was visualized and quantified using an Odyssey Fc Imager (LI-COR Biosciences, Lincoln, Nebr.). The protein levels of GluN1 and α2δ-1 were normalized by the PSD-95 protein band on the same gel.

[2] = molecular target: T2, NMDARs of spinally projecting PVN neurons (Rattus norvegicus, UniProt P35439+Q00959+Q00960); experiment: Recordings of spinally projecting PVN neurons in rat brain slices (Ang II); type: cell-based
T2 construct: from tissue; host or cells: rat hypothalamic slices containing the PVN (Sprague-Dawley, WKY, SHR) and synaptosomes made from them
Text: Retrograde labeling of spinally projecting PVN neurons: Rats or mice were anesthetized with 2-3% isoflurane, and their spinal cords at the T1-T4 level were exposed through dorsal laminectomy. A fluorescent microsphere suspension (FluoSpheres, 0.04 μm; Molecular Probes, Invitrogen, Eugene, Oreg.) was pressure ejected (Nanoject II Microinjectors, Drummond Scientific Company, Broomall, Pa.) bilaterally into the IML region of the spinal cord in six separate 50-nl injections using a glass micropipette (tip diameter, 20-30 μm). […] The wound was closed with sutures after injection. Animals were returned to their cages for 4-7 days, which was sufficient time to permit the tracer to be retrogradely transported to the PVN. The animals were inspected daily for motor activity, signs of infection, and food and water intake.
Brain slice preparation: Four to seven days after fluorescent tracer injection, the animals were anesthetized with isoflurane and rapidly decapitated. […] Coronal slices (thickness, 300 μm) containing the PVN were cut from the tissue block in the ice-cold aCSF. […] The brain slices were placed in a glass-bottom chamber and continuously perfused with aCSF at 3.0 ml/min at 34° C. maintained by an inline solution heater and temperature controller.
The labeled PVN neurons were briefly identified with the aid of epifluorescence illumination, and whole-cell recordings from labeled PVN neurons were performed under differential interference contrast optics on an upright microscope (BX50 WI; Olympus Optical, Tokyo, Japan). Recordings of postsynaptic currents began 5 min after the whole-cell access was established and the current reached a steady state.
Signals were processed with an […] amplifier (Axon Instruments, Foster City, Calif.). A liquid junction potential of 15 mV (for the potassium gluconate pipette solution) was corrected during off-line analysis.
Postsynaptic NMDAR currents were elicited by puff application of 100 μmol/L NMDA to the recorded neuron using a positive pressure system (4 p.s.i., 50 ms; Toohey Company, Fairfield, N.J.). The tip of the puff pipette was placed 150 μm from the recorded neuron. […] The NMDAR current data presented in the manuscript were the average of 3 consecutive currents elicited by repeated puff NMDA. The neuron was discarded if the current was not stable.
Ang II, losartan, and NMDA were obtained from Sigma (St. Louis, Mo.). The α2δ-1Tat peptide and scrambled control peptide were synthesized by Bio Basic Inc. (Markham, Ontario, Canada) and validated by liquid chromatography and mass spectrometry. […] All drugs were prepared immediately before the experiments and applied to the slice chamber. The brain slices were first pretreated with Ang II, losartan, α2δ-1Tat peptide, or control peptide in the slice incubation chamber before recording. For electrophysiological recording, the treatment agents were immediately removed and the brain slice transferred to a separate recording chamber.

[3] = Ang II 2 μmol/L for 60 min vs vehicle
[4] = peptide 1 μmol/L for 30 min, vs control peptide

| Compound | brain infarct volume (MCAO mice) | neurological deficit score (MCAO mice) | protein level of GluN1 in hypothalamic synaptosomes [1, 3] | protein level of α2δ-1 in hypothalamic synaptosomes [1, 3] | amplitude of puff NMDA currents of labeled PVN neurons ([2]; Ang II 2 μmol/L for 30-60 min) | baseline frequency of mEPSCs of labeled PVN neurons ([2]; Ang II 2 μmol/L for 30-60 min) | effect of Ang II on the protein level of GluN1 [1, 4] | effect of Ang II on the protein level of α2δ-1 [1, 4] | effect of Ang II on mEPSC frequency in pretreated slices ([2]; losartan 2 μmol/L, pregabalin 20 μmol/L, peptides 1 μmol/L) | effect of Ang II on puff NMDA currents in pretreated slices ([2]; losartan 2 μmol/L, pregabalin 20 μmol/L, peptides 1 μmol/L, 30 min) |
| --- | --- | --- | --- | --- | --- | --- | --- | --- | --- | --- |
| NCC1(CC(=O)O)CCCCC1 [gabapentin] | much smaller | significantly improved |  |  |  |  |  |  |  |  |
| Ang II: angiotensin II, obtained from Sigma (DRVYIHPF; Angiotensin-2; UniProt P01019 25-32, looked up) |  |  | significantly increased | significantly increased | markedly increased | significantly increased |  |  |  |  |
| YGRKKRRQRRRVSGLNPSLWSIFGLQFILLWLVSGSRHYLW (a2d1 peptide) [α2δ-1Tat peptide, 30-amino-acid peptide mimicking the C-terminal domain of α2δ-1 fused to the cell-penetrating peptide Tat] | much less | significantly reduced |  |  |  |  | significantly attenuated | significantly attenuated | failed to increase | had no effect |
